# Laboratory results as given in publication PMC10716131 (2023).
# Legend:
# [1] = target: T1, DDB1:CRBN complex, full-length human CRBN (residues 1–442) with N-terminal biotinylated Avi-tag, co-expressed … (human, UniProt Q96SW2 1-442; Q16531 1-1140, biotin on the Avi-tag (BirA, 100% efficiency)); assay: SPR; CC-220 5 uM
# [2] = target: T1, DDB1:CRBN complex, full-length human …; assay: SPR; CC-220
# [3] = target: T1, DDB1:CRBN complex, full-length human …; assay: SPR; CC-220; remark: listed apart in the source
# [4] = target: T1, DDB1:CRBN complex, full-length human …; assay: SPR; pomalidomide
# [5] = target: T1, DDB1:CRBN complex, full-length human …; assay: SPR; pomalidomide; remark: listed apart in the source
# [6] = target: T1, DDB1:CRBN complex, full-length human …; assay: SPR; pomalidomide 5 uM
# T1 sequence (Q96SW2 whole entry, chain 1 of 2, the tested form may be a part): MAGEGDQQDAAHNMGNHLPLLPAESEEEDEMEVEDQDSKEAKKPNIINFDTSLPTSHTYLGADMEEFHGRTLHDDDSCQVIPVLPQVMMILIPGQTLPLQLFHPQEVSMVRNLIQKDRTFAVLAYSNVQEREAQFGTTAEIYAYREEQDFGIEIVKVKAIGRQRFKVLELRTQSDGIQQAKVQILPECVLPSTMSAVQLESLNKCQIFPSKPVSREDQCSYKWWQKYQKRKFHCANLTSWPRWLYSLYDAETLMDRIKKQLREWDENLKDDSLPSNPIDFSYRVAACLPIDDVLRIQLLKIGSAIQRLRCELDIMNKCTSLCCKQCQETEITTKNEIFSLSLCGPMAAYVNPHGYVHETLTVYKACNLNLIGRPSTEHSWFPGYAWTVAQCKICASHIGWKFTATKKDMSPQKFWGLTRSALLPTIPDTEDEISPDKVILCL
# T1 sequence (Q16531 whole entry, chain 2 of 2, the tested form may be a part): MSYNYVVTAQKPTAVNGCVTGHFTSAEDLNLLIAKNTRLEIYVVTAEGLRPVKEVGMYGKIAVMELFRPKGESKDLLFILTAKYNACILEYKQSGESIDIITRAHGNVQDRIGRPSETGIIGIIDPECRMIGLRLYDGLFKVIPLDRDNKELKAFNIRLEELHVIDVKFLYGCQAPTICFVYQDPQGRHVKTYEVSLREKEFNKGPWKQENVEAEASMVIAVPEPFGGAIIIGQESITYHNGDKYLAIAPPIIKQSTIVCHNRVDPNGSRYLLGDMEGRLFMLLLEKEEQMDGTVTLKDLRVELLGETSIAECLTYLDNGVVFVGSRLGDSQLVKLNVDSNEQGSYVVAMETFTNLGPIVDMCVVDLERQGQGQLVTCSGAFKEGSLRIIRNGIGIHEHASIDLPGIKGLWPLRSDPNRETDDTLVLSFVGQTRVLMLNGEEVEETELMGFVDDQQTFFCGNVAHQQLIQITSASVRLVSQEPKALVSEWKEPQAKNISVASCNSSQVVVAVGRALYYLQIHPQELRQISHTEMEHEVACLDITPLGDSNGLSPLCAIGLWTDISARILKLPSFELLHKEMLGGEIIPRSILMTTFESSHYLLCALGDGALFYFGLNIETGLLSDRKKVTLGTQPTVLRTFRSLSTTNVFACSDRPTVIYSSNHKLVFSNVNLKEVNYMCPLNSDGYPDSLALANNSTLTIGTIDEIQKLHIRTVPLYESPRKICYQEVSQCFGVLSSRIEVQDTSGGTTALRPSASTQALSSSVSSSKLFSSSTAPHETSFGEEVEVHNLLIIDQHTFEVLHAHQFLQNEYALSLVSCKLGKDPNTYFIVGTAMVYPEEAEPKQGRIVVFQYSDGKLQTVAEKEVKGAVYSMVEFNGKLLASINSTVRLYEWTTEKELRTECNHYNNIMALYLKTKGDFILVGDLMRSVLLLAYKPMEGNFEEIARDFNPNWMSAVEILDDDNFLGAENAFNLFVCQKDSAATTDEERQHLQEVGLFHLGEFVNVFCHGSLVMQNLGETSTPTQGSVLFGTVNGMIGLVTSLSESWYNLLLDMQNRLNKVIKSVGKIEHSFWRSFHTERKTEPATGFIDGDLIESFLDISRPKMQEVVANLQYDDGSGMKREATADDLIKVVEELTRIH
Kd [1],Kd [2],koff [3],koff [4],Kd [5],Kd [6],Binder
0.31 µM,0.28 µM,0.042 s⁻¹,0.015 s⁻¹,0.06 µM,0.06 µM,Human SALL4 ZF1-2(370–454) (domain or fragment) DVKPKDEAALYKHKCKYCSKVFGTDSSLQIHLRSHTGERPFVCSVCGHRFTTKGNLKVHFHRHPQVKANPQLFAEFQDKVAAGNG
–,150 µM,0.34 s⁻¹,0.26 s⁻¹,2.1 µM,–,Human SALL4 ZF1-2(379–432) (domain or fragment) LYKHKCKYCSKVFGTDSSLQIHLRSHTGERPFVCSVCGHRFTTKGNLKVHFHRH
–,–,–,–,–,67.1 µM,Human SALL4 ZF2(405–432) (domain or fragment) not shown
4 µM,–,–,–,–,–,TGERPFVCSVCGHRFTTKGNLKVHFHRHPQVKA (domain or fragment) [Human SALL4 ZF2(405–437)]
2.1 µM,–,–,–,–,0.7 µM,TGERPFVCSVCGHRFTTKGNLKVHFHRHPQVKANPQLFAEFQDKVAAGNG (domain or fragment) [Human SALL4 ZF2(405–454)]
